From patent US6767991
Where two headings read alike, the source gives them in different places. Where no end group is shown, it is not given here. [ ]: non-standard residue; d: D form. Pro(1-NpCH2O) = Pro(4-R13), R13 = 1-NpCH2O; Pro(2-NpCH2O) = Pro(4-R13), R13 = 2-NpCH2O; P1(R14 Et, 1R,2R) = not defined here; P1(R14 Et, 1S,2S) = not defined here; Pro(4-OBn) = Pro(4-R13), R13 = OBn; Pro(O-Bn) = Pro(4-R13), R13 = O-Bn; Pro(OBn) = Pro(4-R13), R13 = OBn; Chg = N[C@H](C(=O)O)C1CCCCC1; Acca = not defined here; Nva = CCC[C@H](N)C(=O)O; Ac3c = NC1(C(=O)O)CC1

B1: Compound 236 (Table 2): Ac-Gly-thioxo-Ile-Val-Pro(1-NpCH2O)-Nva (peptide)
peptide: Ac-GIVP[Nva]
modifications: not fully specified (residue 4); also: Ile2 thioxo (L-thionoisoleucine), thioamide

Legend:
[1] = molecular target: recombinant NS3 protease with the NS4A peptide cofactor … (molar ratio enzyme:cofactor 1:100) (hepatitis C virus genotype 1b); assay: cell-based or functional assay
[2] = molecular target: recombinant NS3 protease with the NS4A peptide cofactor … (molar ratio enzyme:cofactor 1:100) (hepatitis C virus genotype 1b); assay: cell-based or functional assay; remark: listed apart in the source

Row | Binder | IC50 [1] [µM] | IC50 [2] [µM] | fold potency against the corresponding 1S,2S isomer (compound 514) [2] [fold]
1 | Ac-D[dE]IV[Pro(OBn)][(1R,2R)‑1‑amino‑2‑ethylcyclopropanecarboxylic acid] [Compound 517 (Table 5): Ac-Asp-D-Glu-Ile-Val-Pro(OBn)-P1(R14 Et; 1R, 2R)] | 0.075 |  | 
2 | Ac-D[dE]IVP[Nva] [Compound 128 (Table 1): Ac-Asp-D-Glu-Ile-Val-Pro-Nva] | 7.4 |  | 
3 | Ac-D[dE][Chg]V[Pro(O-Bn)][Nva] [Compound 211 (Table 2): Ac-Asp-D-Glu-Chg-Val-Pro(O-Bn)-Nva] | 0.12 |  | 
4 | Ac-[Chg]VP[P1(R14 Et, 1R,2R)] (not fully specified (residue 3); reading uncertain) [Compound 513 (Table 5): Ac-Chg-Val-Pro(1-NpCH2O)-P1(R14 Et; 1R, 2R)] |  | 1.66 | 25
5 | Ac-D[dE]IV[Pro(2-NpCH2O)][Nva] [Compound 213 (Table 2): Ac-Asp-D-Glu-Ile-Val-Pro(2-NpCH2O)-Nva] | 0.036 |  | 
6 | Ac-[Chg]VP[Ac3c] (not fully specified (residue 3); printed as Ac-Chg-Val-Pro(1-NpCH2O)-Acca) [Compound 227 (Table 2): Ac-Chg-Val-Pro(1-NpCH2O)-Acca] |  | 3 | 
7 | Ac-D[dE][Chg]V[Pro(1-NpCH2O)][Acca] (reading uncertain) [Compound 215 (Table 2): Ac-Asp-D-Glu-Chg-Val-Pro(1-NpCH2O)-Acca] | 0.014 |  | 
8 | Ac-D[dV]IV[Pro(O-Bn)][Nva] [Compound 202 (Table 2): Ac-Asp-D-Val-Ile-Val-Pro(O-Bn)-Nva] | 0.93 |  | 
9 | Ac-D[dE]IV[Pro(4-OBn)][Nva] [Compound 218 (Table 2): Ac-Asp-D-Glu-Ile-Val-Pro(O-Bn)-Nva] | 0.49 |  | 
10 | Ac-D[dE]IV[Pro(OBn)][(1S,2S)‑1‑amino‑2‑ethylcyclopropanecarboxylic acid]-{NH‑(R)‑CHMePh} [Compound 1002 (Table 10): Ac-Asp-D-Glu-Ile-Val-Pro(OBn)-P1(R14 Et; 1S, 2S)-NH-(R)-CHMePh] | 49 |  | 
11 | D[dE]IV[Pro(O-Bn)][1‑amino‑2‑vinylcyclopropanecarboxylic acid] (not fully specified; also: further groups not given here) [Compound 636 (Table 6): P6 Asp, P5 D-Glu, P4 Ile, P3 Val, R13 O-Bn, R14 vinyl] | 0.47 |  | 
12 | Ac-D[dE][Chg]EE[Acca] (reading uncertain) [Compound 132 (Table 1): Ac-Asp-D-Glu-Chg-Glu-Glu-Acca] | 36 |  | 
13 | Ac-[Chg]VP[Ac3c] (not fully specified (residue 3); printed as Ac-Chg-Val-Pro(R13)-Acca) [Compound 257 (Table 2): Ac-Chg-Val-Pro(R13)-Acca, R13 drawn] |  | 2.2 | 
14 | Ac-[Chg]VPX (not fully specified (residue 3); printed as Ac-Chg-Val-Pro(O-Bn)-P1) [Compound 228 (Table 2): Ac-Chg-Val-Pro(O-Bn)-P1, P1 drawn] |  | 35 | 
15 | Ac-D[dE]IV[Pro(OBn)][(1S,2S)‑1‑amino‑2‑ethylcyclopropanecarboxylic acid]-{NH‑(S)‑CHMePh} [Compound 1001 (Table 10): Ac-Asp-D-Glu-Ile-Val-Pro(OBn)-P1(R14 Et; 1S, 2S)-NH-(S)-CHMePh] | 2 |  | 
16 | Ac-[Chg][Chg]P[P1(R14 Et, 1S,2S)] (not fully specified (residue 3); reading uncertain) [Compound 506 (Table 5): Ac-Chg-Chg-Pro(1-NpCH2O)-P1(R14 Et; 1S, 2S)] |  | 4.85 | 
17 | B1 | 4 |  | 
